For the assay, the target named is proton-dissociation-permeated sodium channel (PDPNaC1) (Scolopendra subspinipes mutilans). The experiment in a line: cryo-EM structure; purified PDPNaC1 in LMNG/CHS, pH 8.0, 4.0 mg/mL; 121,831 particles, C3 symmetry, 3.03 Å; closed (non-conductive) state.

Among the data in article PMC12714832 are stoichiometry N values, retold here.

For orientation: stoichiometry N means the number of molecules, sites or subunits per partner or assembly.

Take “proton-dissociation-permeated sodium channel (PDPNaC1) (natural protein)”: the stoichiometry N was found to be 3.
